Earlier results, collected in PMC10810742.

Molecular target: Ubiquitin (Homo sapiens) (UniProt P0CG47)

Chain of CteC (Q7NY09 whole entry): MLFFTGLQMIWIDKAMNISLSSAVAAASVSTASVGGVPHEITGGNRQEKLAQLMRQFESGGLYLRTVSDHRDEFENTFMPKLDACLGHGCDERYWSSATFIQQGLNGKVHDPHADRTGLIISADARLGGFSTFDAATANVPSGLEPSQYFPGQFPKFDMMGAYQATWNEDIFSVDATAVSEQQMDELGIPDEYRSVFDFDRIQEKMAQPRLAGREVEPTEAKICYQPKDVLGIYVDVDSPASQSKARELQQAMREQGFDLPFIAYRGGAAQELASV

Q: For CteC (from UniProt Q7NY09), which Kd is on record?
A: 78.7 µM
